Experimental findings from patent publication US11613587B2, “Combination therapy of T cell activating bispecific antigen binding molecules and PD-1 axis binding antagonists” (Hoffmann-La Roche Inc., priority 2014, dated 2023) are described below.

Data set [1] has as its system huFolR1-Fc. As to the kind of experiment: Epitope binning (SPR). To be noted: 500 nM huFolR1-Fc, 500 nM binder. The class given is binding, human. The protocol:
500 nM huFolR1-Fc was then captured for 60 s, followed by 500 nM of the different binders for 30 s. The surface was regenerated with two injections of 10 mM glycine pH 2 for 30 s each.

Data set [2] deals with erythrocytes (CD235a positive). As to the kind of experiment: Binding to erythrocytes (flow cytometry). Details: species or system human. Background: In flow cytometry, cells or beads pass a laser one at a time.
Data set [3] concerns the target T1, human FolR1 (Homo sapiens, UniProt P15328).
T1 construct: the extracellular domain of the antigen linked to the hinge region of Fc-knob which is co-expressed with an Fc-hole molecule; made in house; host or cells: HEK293 EBNA
As to the kind of experiment: SPR single injections of anti-FolR1 IgGs (Biacore T200). The class given is binding. The text has this:
The immobilization level was about 300-400 RU.
(SPR reads the build-up and loss of mass on a sensor chip optically.)

The test system of data set [4] is HEK cells transiently transfected with cyno FolR1. As to the kind of experiment: Cross-reactivity to cyno FolR1 on transfected HEK cells (flow cytometry). The class given is binding, cynomolgus. Conditions: IgG. The text has this:
FIGS. 4A-B depict graphs summarizing cross-reactivity of FolR1 binders to cyFoLR1. Cross-reactivity of the FolR1 antibodies to cyno FolR1 was addressed on HEK cells transiently transfected with cyFolR1 by flow cytometry.
New FolR1 binders were generated via Phage Display using either a Fab library or a common light chain library using the CD3 light chain. The identified binders were converted into a human IgG1 format and binding to FolR1 high expressing HeLa cells was addressed. As reference molecule the human FolR1 binder Mov19 was included. […] In a next step the selected clones were tested for specificity to human FolR1 by excluding binding to the closely related human FolR2. HEK cells were transiently transfected with either human FolR1 or human FolR2 to address specificity. […] Therefore these clones were excluded from further characterization. In parallel cross-reactivity of the FolR1 clones to cyno FolR1 was addressed by performing binding studies to HEK cells transiently transfected with cyno FolR1. […] Subsequently three human FolR1 specific cyno cross-reactive binders were converted into TCB format and tested for induction of T cell killing and T cell activation. […] As reference molecule Mov19 FolR1 TCB was included in all studies. These FolR1 TCBs were then used to compare induction of internalization after binding to FolR1 on HeLa cells.

B1: Mov19: reference human FolR1 binder, control IgG (antibody, V domains shown)
VH: QVQLQQSGAELVKPGASVKISCKASGYSFTGYFMNWVKQSHGKSLEWIGRIHPYDGDTFYNQNFKDKATLTVDKSSNTAHMELLSLTSEDFAVYYCTRYDGSRAMDYWGQGTTVTVSS
VL: DIELTQSPASLAVSLGQRAIISCKASQSVSFAGTSLMHWYHQKPGQQPKLLIYRASNLEAGVPTRFSGSGSKTDFTLNIHPVEEEDAATYYCQQSREYPYTFGGGTKLEIK
Regarding B1, in data set [1], the “binding of analyte in solution to huFolR1 captured on immobilized 16D5 TCB” value is on record as “+ (+means binding)”, the “binding of analyte in solution to huFolR1 captured on immobilized 21A5 TCB” value was “+ (+means binding)” and the “binding of analyte in solution to huFolR1 captured on immobilized Mov19 IgG” value is “−”. The binding to erythrocytes result in data set [2] was “could not observe any specific binding”.

B2: 36F2: anti-FolR1 clone from generic multi-framework Fab library (Vk_3_20/VH_1_46) (antibody, V domains shown)
VH: QVQLVQSGAEVKKPGASVKVSCKASGYTFTSYYMHWVRQAPGQGLEWMGIINPSGGSTSYAQKFQGRVTMTHDTSTSTVYMELSSLRSEDTAVYYCARSFFTGFHLDYWGQGTLVTVSS
VL: EIVLTQSPGTLSLSPGERATLSCRASQSVSSSYLAWYQQKPGQAPRLLIYGASSRATGIPDRFSGSGSGTDFTLTISRLEPEDFAVYYCQQYTNEHYYTFGQGTKVEIK
On to B2, for which the “dissociation from huFolR1” value in data set [3] is recorded as “dissociated rapidly from huFolR1”. In data set [1], the “binding of analyte in solution to huFolR1 captured on immobilized 16D5 TCB” value is on record as “+ (+means binding)”, the “binding of analyte in solution to huFolR1 captured on immobilized 21A5 TCB” value is given as “+ (+means binding)” and the “binding of analyte in solution to huFolR1 captured on immobilized Mov19 IgG” value is “−”. The “binding to cyno FolR1” value in data set [4] was “bind comparably well human and cyno FoLR1”.
